Assay results reported in patent publication US20230190812A1 (published 2023).

Target: T1, MAGE-A4 (MA4-230) peptide on HLA-A*02:01 (human)
T1 peptide: GVYDGREHTV
Assay: multimer staining

B1: MA4-230 H1 TCR (TCR, V domains shown)
Valpha: LAKTTQPISMDSYEGQEVNITCSHNNIATNDYITWYQQFPSQGPRFIIQGYKTKVTNEVASLFIPADRKSSTLSLPRVSLSDTAVYYCLVVEGNRDDKIIFGKGTRLHILP
Vbeta: NAGVTQTPKFRVLKTGQSMTLLCAQDMNHEYMYWYRQDPGMGLRLIHYSVGEGTTAKGEVPDGYNVSRLKKQNFLLGLESAAPSQTSVYFCASPPTPSSYNEQFFGPGTRLTVL
binding result: recognises
